This test addresses purified recombinant I-A^b carrying a cleavable linker peptide (mouse). The test is described as follows: fluorescent peptide competition binding assay.

For the substance “NP peptide Q2, P2 (Ser to Gln) (from UniProt P03466 311-325)”, the reduction in peptide-MHC binding (against the unsubstituted peptide) amounted to 3.4.

The values above are taken from paper doi:10.1101/2022.05.09.491158.
